How the values were obtained:
human GIP receptor [1] = target: T1, human GIP receptor (human, UniProt P48546 22-466); assay: cell-based or functional assay
T1 sequence (looked up): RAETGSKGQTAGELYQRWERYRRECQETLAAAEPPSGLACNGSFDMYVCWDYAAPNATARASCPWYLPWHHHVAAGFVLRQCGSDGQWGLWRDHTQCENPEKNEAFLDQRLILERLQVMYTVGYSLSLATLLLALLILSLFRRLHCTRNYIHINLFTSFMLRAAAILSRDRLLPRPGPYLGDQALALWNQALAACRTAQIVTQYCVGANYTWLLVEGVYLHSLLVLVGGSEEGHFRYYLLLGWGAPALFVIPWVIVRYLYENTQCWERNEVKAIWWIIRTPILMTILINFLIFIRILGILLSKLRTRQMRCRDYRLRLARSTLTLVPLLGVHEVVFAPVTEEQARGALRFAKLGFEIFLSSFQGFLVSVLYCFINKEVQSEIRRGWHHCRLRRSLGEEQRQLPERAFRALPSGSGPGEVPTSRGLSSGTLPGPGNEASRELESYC

human GLP-1 receptor [2] = target: human GLP-1 receptor (human, UniProt P43220 24-463); assay: cell-based or functional assay
human glucagon receptor [3] = target: human glucagon receptor (human, UniProt P47871 26-477); assay: cell-based or functional assay
human GIP receptor [4] = target: T2, human GIP receptor (human, UniProt P48546 22-466); assay: SPA competition vs [125I]-GIP, hGIPR membranes
T2 construct: whole, on cells; also called hGIPR; human glucose-dependent insulinotropic polypeptide receptor
T2 sequence (looked up): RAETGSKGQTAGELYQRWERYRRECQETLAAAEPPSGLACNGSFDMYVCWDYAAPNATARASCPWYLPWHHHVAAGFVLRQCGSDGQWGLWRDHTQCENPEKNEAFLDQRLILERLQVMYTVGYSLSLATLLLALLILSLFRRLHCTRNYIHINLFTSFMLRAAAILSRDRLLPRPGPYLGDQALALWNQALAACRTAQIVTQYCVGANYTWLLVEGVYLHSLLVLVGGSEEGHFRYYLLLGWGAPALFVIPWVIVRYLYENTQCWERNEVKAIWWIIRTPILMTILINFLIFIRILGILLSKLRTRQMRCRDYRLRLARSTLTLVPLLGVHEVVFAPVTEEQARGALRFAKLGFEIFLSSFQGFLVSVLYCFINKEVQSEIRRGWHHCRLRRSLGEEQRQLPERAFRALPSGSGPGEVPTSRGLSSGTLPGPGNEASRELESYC

human glucagon receptor [5] = target: T3, human glucagon receptor (human, UniProt P47871 26-477); assay: SPA competition vs [125I]-Gcg, hGcgR membranes
T3 construct: whole, on cells; also called hGCGR; hGcgR
T3 sequence (P47871 26-477): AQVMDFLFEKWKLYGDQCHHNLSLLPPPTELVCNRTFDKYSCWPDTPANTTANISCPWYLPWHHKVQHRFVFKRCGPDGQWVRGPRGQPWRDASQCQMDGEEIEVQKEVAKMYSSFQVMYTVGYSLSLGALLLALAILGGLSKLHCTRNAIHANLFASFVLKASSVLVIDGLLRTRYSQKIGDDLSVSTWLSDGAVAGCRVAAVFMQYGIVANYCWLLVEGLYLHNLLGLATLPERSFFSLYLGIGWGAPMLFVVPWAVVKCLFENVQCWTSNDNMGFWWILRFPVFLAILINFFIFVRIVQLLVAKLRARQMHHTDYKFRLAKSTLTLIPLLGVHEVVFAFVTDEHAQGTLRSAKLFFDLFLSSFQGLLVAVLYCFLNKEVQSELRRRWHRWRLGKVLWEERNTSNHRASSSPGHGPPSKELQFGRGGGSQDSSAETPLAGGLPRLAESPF

human GLP-1 receptor [6] = target: T4, human GLP-1 receptor (human, UniProt P43220 24-463); assay: SPA competition vs [125I]-GLP-1, hGLP-1R membranes
T4 construct: whole, on cells; also called hGLP-1R; human glucagon-like peptide-1 receptor
In short: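 Competition binding in 25 mM HEPES pH 7.4, 2.5 mM CaCl₂, 1 mM MgCl₂, 0.1% bacitracin, 0.003% TWEEN-20, EDTA-free protease inhibitors. IC₅₀ from four-parameter nonlinear fit; Kᵢ given as geometric mean ± SEM, n = independent replicates on different days.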

Row | Binder | cAMP EC50 (1.0% HSA) (human GIP receptor [1]) | cAMP Emax (1.0% HSA) (human GIP receptor [1]) | cAMP EC50 (1.0% HSA) (human GLP-1 receptor [2]) | cAMP EC50 (1.0% HSA) (human glucagon receptor [3]) | Ki (human GIP receptor [4]) | Ki (human glucagon receptor [5]) | Ki (human GLP-1 receptor [6])
1 | YXEGTXTSDYXIXLDXIAQXEFIKXLIKGGPSSGAPPPS (Y-Aib-EGT-αMeF(2F)-TSDY-Aib-I-αMeL-LD-Orn-IAQ-Aib-EFIK((2-[2-(2-Amino-ethoxy)-ethoxy]-acetyl)2-(γ-Glu)-CO-(CH2)12-CO2H)-αMeY-LIK((2-[2-(2-Amino-ethoxy)-ethoxy]-acetyl)2-(γ-Glu)-CO-(CH2)12-CO2H)GGPSSGAPPPS-NH2) [Example 233] | 6.08 nM | 91.4% | 56.7 nM | > 9950 nM | – | – | –
2 | YXEGTXTSDYXIXLDXIAQXEFIKXLIKGGPSSGAPPPS (Y-Aib-EGT-αMeF(2F)-TSDY-Aib-I-αMeL-LD-Orn-IAQ-Aib-EFIK((2-[2-(2-Amino-ethoxy)-ethoxy]-acetyl)2-(γ-Glu)-(10-(4-carboxyphenoxy)decanoyl))-αMeY-LIK((2-[2-(2-Amino-ethoxy)-ethoxy]-acetyl)2-(γ-Glu)-(10-(4-carboxyphenoxy)decanoyl))GGPSSGAPPPS-NH2) [Example 239] | 5.46 nM | – | 25.2 nM | > 9950 nM | – | – | –
3 | YXEGTXTSDXXIXLDXIAQXEFIKXLIKGGPSSGAPPPS (Y-Aib-EGT-αMeF(2F)-TSD-4Pal-Aib-I-αMeL-LD-Orn-IAQ-Aib-EFIK((2-[2-(2-Amino-ethoxy)-ethoxy]-acetyl)2-(γ-Glu)-(10-(4-carboxyphenoxy)decanoyl))-αMeY-LIK((2-[2-(2-Amino-ethoxy)-ethoxy]-acetyl)2-(γ-Glu)-(10-(4-carboxyphenoxy)decanoyl))GGPSSGAPPPS-NH2) [Example 246] | 1.63 nM | – | 22.9 nM | > 9950 nM | – | – | –
4 | YXEGTXTSDXSIXLDXKAQXKFIXXLIEGGPSSGAPPPS (Y-Aib-EGT-αMeF(2F)-TSD-2Nal-SI-αMeL-LD-Orn-K((2-[2-(2-Amino-ethoxy)-ethoxy]-acetyl)2-(γ-Glu)-CO-(CH2)12-CO2H)AQ-Aib-K((2-[2-(2-Amino-ethoxy)-ethoxy]-acetyl)2-(γ-Glu)-CO-(CH2)12-CO2H)FI-(D-Glu)-αMeY-LIEGGPSSGAPPPS-NH2) [Example 249] | 5.88 nM | – | 51.6 nM | > 9950 nM | – | – | –
5 | YXEGTXTSDXXIXLDXQAQXXFIKXLIKGGPSSGAPPPS (Aib2, αMeF(2F)6, 4Pal10, Aib11, αMeL13, Orn16, Aib20, Orn21, K24(Z1), αMeY25, K28(Z1), C-term NH2; Z1=AEEA-Trx-(γ-Glu)-(10-(4-carboxyphenoxy)decanoyl)) | – | – | – | – | 0.0319 nM | 162 nM | 0.169 nM
6 | YXEGTXTSDXXIXLDXQAQXXFIKXLIKGGPSSGAPPPS (Aib2, αMeF(2F)6, 4Pal10, Aib11, αMeL13, Orn16, Aib20, Orn21, K24(Z1), αMeY25, K28(Z1), C-term NH2; Z1=AEEA2-(γ-Glu)2-CO-(CH2)12-CO2H) | – | – | – | – | 0.0427 nM | 382 nM | 0.343 nM
7 | YXEGTXTSDXXIXLDXQAQXXFIKXLIKGGPSSGAPPPS (Aib2, αMeF(2F)6, 4Pal10, Aib11, αMeL13, Orn16, Aib20, Orn21, K24(Z1), αMeY25, K28(Z1), C-term NH2; Z1=AEEA2-(γ-Glu)2-(10-(4-carboxyphenoxy)decanoyl)) | – | – | – | – | 0.0294 nM | 139 nM | 0.189 nM
8 | YXEGTXTSDXXIXLDXQAQXXFIKXLIKGGPSSGAPPPS (Aib2, αMeF(2F)6, 4Pal10, Aib11, αMeL13, Orn16, Aib20, Orn21, K24(Z1), αMeY25, K28(Z1), C-term NH2; Z1=AEEA3-(γ-Glu)-CO-(CH2)12-CO2H) | – | – | – | – | 0.0351 nM | 605 nM | 0.226 nM
9 | YXEGTXTSDXXIXLDXQAQXXFIKXLIKGGPSSGAPPPS (Aib2, αMeF(2F)6, 4Pal10, Aib11, αMeL13, Orn16, Aib20, Orn21, K24(Z1), αMeY25, K28(Z1), C-term NH2; Z1=AEEA3-(γ-Glu)-(10-(4-carboxyphenoxy)decanoyl)) | – | – | – | – | 0.0279 nM | 268 nM | 0.143 nM

Reference: patent US20230265151A1, “GIP/GLP1 CO-AGONIST COMPOUNDS” (priority 2020, published 2023)
